Data as given in PMC10998878, “Inhibition of acyl-CoA binding protein (ACBP) by means of a GABAARγ2-derived peptide” (Cell Death & Disease, 2024).
Where no end group is shown, it is not given here.

Assays:
Huh-7 cells = assay: WST-8 conversion (metabolic activation) by Huh-7 cells; type: cell-based, human; settings: for effect on RecACBP/DBI-stimulated WST-8 conversion: then RecACBP/DBI 4 h, n = 4
Procedure: Media and cell culture supplements were purchased from Gibco-Invitrogen (Carlsbad, CA, USA). Plasticware was purchased from Corning B.V. Life Sciences (Schiphol-Rijk, The Netherlands). Unless reported otherwise, the cell line used in this study was cultured at standard conditions (37 °C, 5% CO2, Dulbecco’s modified Eagle’s medium containing 10% fetal bovine serum, 10 mM HEPES buffer, 100 mg/L sodium pyruvate, 100 U/mL penicillin G sodium, and 100 µg/mL streptomycin sulfate). 2-deoxy-D-glucose (# D8375) and rotenone (# R8875) were purchased from Sigma (Burlington, MA, USA). Human hepatocellular carcinoma (Huh-7) cell line was used for in vitro experiments. Cells were plated in 6- or 96-well plates and grown for 24 h before treatments.
(§1) WST-8 conversion assays were conducted utilizing the Cell Counting Kit-8 (Sigma-Aldrich, #96992). Cells were seeded in a 96-well plate at a density of 3000 cells per well and incubated overnight for adherence. Then, the culture medium was removed, and fresh medium containing the specified treatments was added to the wells. Immediately following the addition of treatments, 10 μL of CCK-8 reagent was introduced to each well. Subsequently, the cells were incubated for 4.5 h at 37 °C to facilitate the conversion of WST-8 in response to cellular activity. Following the incubation period, the absorbance at 450 nm was quantified using a VICTOR® Nivo™ microplate reader. This measurement served as an indicator of WST-8 conversion, reflecting cellular metabolic activity.
Fig. 6 Inhibition of the metabolic effects of ACBP/DBI on hepatocytes by the GABAARγ2-derived eicosapeptide. A WST-8 conversion by murine primary hepatocytes treated with increasing concentrations of recombinant ACBP/DBI protein (RecACBP/DBI) for 4 h. Hepatocytes were isolated from tamoxifen-induced Acbp/Dbi f/f or Acbp/Dbi KO full-body genetic background mice (white- or blue-colored graphs respectively). […] For statistical analysis p values are calculated by one-way ANOVA. B WST-8 conversion by control (shUNR) and ACBP/DBI-knocked down (shACBP/DBI) human Huh-7 cells treated with increasing concentrations of RecACBP/DBI for 4 h. shUNR and shACBP/DBI cells are represented by white- or blue-colored graphs respectively. […] C WST-8 conversion by Huh-7 cells treated with RecACBP/DBI or negative control (4 h). Cells were pre-treated with 2-deoxy-D-glucose (2-Deoxy-D-glu; 300 µM) or vehicle (2 h). […] D WST-8 conversion by Huh-7 cells treated with RecACBP/DBI or negative control (4 h). Cells were pre-treated with rotenone (0.5 µM) or vehicle (2 h). […] E WST-8 conversion by Huh-7 cells treated with RecACBP/DBI or negative control (4 h). Prior to administration, RecACBP/DBI was overnight pre-incubated with monoclonal antibody (α-ACBP/DBI) or isotype IgG1. […] F WST-8 conversion by Huh-7 cells treated with RecACBP/DBI or negative control (4 h). Prior to administration, RecACBP/DBI was overnight pre-incubated with GABAARγ2 (WT or F77I-mutated) eicosapeptides.

[1] = tested on: native ACBP/DBI protein (mouse liver extracts); assay: Pull down / immunoprecipitation of native ACBP/DBI from liver extracts; type: binding; settings: mouse liver protein extract (500 μg), peptide-coated beads, overnight 4 °C, immunoblot for ACBP
Procedure: The physical interaction between the native ACBP and GABAARγ2 peptides was examined by standard immunoprecipitation (IP) and immunoblotting protocols. In detail, liver protein extracts (500 μg) were immunoprecipitated on protein A/G-Sepharose beads (Merck Millipore, Burlington, MA, USA, #GE17-0618-01) coated with (1× 2× 4×) either GABAARγ2 wild type (WT) or mutated (F77I) eicosapeptide (Biosynth ltd) or its negative control (PBS). Each IP reaction was incubated overnight (4 °C) in a rotation chamber followed by three consecutive rounds of PBS washing the next day. Each washing round included a PBS resuspension of the pellet and a re-centrifugation (12,000 × g, 4 °C). Finally, beads were resuspended in 20 μL of NUPAGE 4× buffer (Life Technologies, CA, USA, #NP0008), heated at 100 °C (10 min), followed by standard immunoblotting for the ACBP protein (Abcam #ab231910).
Fig. 5 Biophysical and biochemical detection of a direct interaction between ACBP/DBI and the GABAARγ2-derived eicosapeptide. A Schematic representation of the GABAAR and the GABAARγ2-derived eicosapeptides. B Surface plasmon resonance kinetics of ACBP-GABAARγ2-derived eicosapeptide (WT and F77I) interactions. Representative ACBP immunoblot (C) from control- or GABAARγ2-immunoprecipitated samples. Anti-GABAARγ2 immunoprecipitation (IP) assay was employed in order to validate the GABAARγ2 WT peptide interaction with native ACBP (in murine hepatic protein extracts), and quantification (D). […] For statistical analysis p value (indicating statistical comparisons with the control condition) was calculated by Mann–Whitney U-test. E Anti-GABAARγ2 IP assay to address the physical interaction between GABAARγ2 peptides and murine hepatic ACBP protein. Interaction was validated using an increasing gradient of biotinylated WT/F77I peptides that were bound on the surface of streptavidin beads as part of the IP assay. […]

[2] = biological target: T1, recombinant murine ACBP/DBI (acyl-CoA binding protein / diazepam binding inhibitor) (mouse, UniProt P31786 1-87, biotin (site not stated; for the SPR chip)); assay: SPR; Biacore 2000; biotinylated ACBP/DBI immobilised on SA chip (1600 RU); peptides injected at 10 µM and 100 µM in HBS-EP, 30 µL/min, 25 °C; association 4 min, dissociation 5 min; control surface streptavidin alone; settings: both partners purified
T1 construct: Biotinylated for immobilisation on the SA chip; in the food intake experiment murine RecACBP/DBI was injected and no biotin is mentioned; also called RecACBP/DBI; recombinant ACBP/DBI; source: recombinant, from the Institute of Psychiatry and Neuroscience of Paris, France
T1 sequence (looked up): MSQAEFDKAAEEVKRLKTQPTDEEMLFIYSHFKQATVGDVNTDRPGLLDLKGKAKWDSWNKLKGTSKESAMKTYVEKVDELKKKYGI

C57BL/6 mice = assay: Food intake after intravenous injection; type: in vivo, mouse; settings: i.v., 0.5 mg/kg, after 24 h starvation, cumulative food intake 30 min, n = 4 to 9
Procedure: Prior to experimentation, mice were subjected to 24 h starvation followed by individual housing and acclimatization in individual cages (2 h). Subsequently, mice were intravenously (i.v.) injected with recombinant ACBP/DBI protein (RecACBP/DBI) (total volume of 200 μL, 0.5 mg/kg body weight), either alone or in combination with GABAARγ2 peptides (5× molar excess). Cumulative food intake was then analyzed as previously described. Prior to i.v. injections, the RecACBP mixes were pre-incubated (16 h, 4 °C) with GABAARγ2 peptides.

[3] = tested on: primary mouse hepatocytes; assay: WST-8 conversion (metabolic activation) by primary hepatocytes; type: cell-based; settings: Acbp/Dbi f/f and KO, increasing concentrations of RecACBP/DBI, 4 h (text: within 4.5 h), n = 3
Procedure: After filtration through a 100 µm cell strainer and successive centrifugations at 30 × g, 4 °C for 5 min, cells were resuspended in the following attachment culture medium: DMEM/F12, 20 mM HEPES (pH = 7.4), 5 mM glucose, 10% FBS (Sigma), 5 mg/mL BSA, 100 U/mL penicillin, and 100 μg/mL streptomycin. The cells were then purified by density gradient centrifugation using an isotonic solution of Percoll (GE Healthcare Bio-Sciences AB, Uppsala, Sweden). Cell viability was assessed using Trypan blue exclusion. Cells were plated in a 96-well plate overnight to facilitate cell attachment before proceeding with experiments.
as §1, with “Subsequently, the cells were incubated for 4.5 h at 37 °C to facilitate the conversion of WST-8 in response to cellular activity.” left out, “This measurement served as an indicator of WST-8 conversion, reflecting cellular metabolic activity.” left out
Fig. 6 Inhibition of the metabolic effects of ACBP/DBI on hepatocytes by the GABAARγ2-derived eicosapeptide. […] For statistical analysis p values are calculated by one-way ANOVA. […]

O=CC[C@@H](O)[C@H](O)[C@H](O)CO [2-deoxy-D-glucose, reference compound]
effect on RecACBP/DBI-stimulated WST-8 conversion (Huh-7 cells; pre-treated with 2-deoxy-D-glucose 300 µM for 2 h): abolished

C=C(C)[C@H]1Cc2c(ccc3c2O[C@@H]2COc4cc(OC)c(OC)cc4[C@@H]2C3=O)O1 [rotenone, reference compound]
effect on RecACBP/DBI-stimulated WST-8 conversion (Huh-7 cells; pre-treated with rotenone 0.5 µM for 2 h): abolished

Biotinylated GABAARγ2-EP-WT: Biotinylated GABAARγ2-EP-WT immobilized on streptavidin-precoated beads (INMEYTIDIFFAQTWYDRRL; also: biotin, site not given here)
pull down of endogenous/native ACBP/DBI, in words [1]: absorbed endogenous ACBP/DBI protein from mouse liver extracts

B1: GABAARγ2-derived eicosapeptide, wild type (GABAARγ2-EP-WT) (peptide)
peptide: INMEYTIDIFFAQTWYDRRL
notes: GABAA receptor gamma-2 subunit (GABRG2), 20-mer with F77 in position 10; 100% identical in zebrafish, chicken, mouse and human; Stocked in DMSO at 1 mg/mL; used without a stated biotin in SPR and in the functional tests; also called GABAARγ2 WT peptide; WT EP; source: synthetic peptide (Biosynth ltd)
binding result [2]: binds

B2: recombinant ACBP/DBI protein: recombinant acyl-CoA binding protein encoded by diazepam binding inhibitor (protein)
chain: MSQAEFDKAAEEVKRLKTQPTDEEMLFIYSHFKQATVGDVNTDRPGLLDLKGKAKWDSWNKLKGTSKESAMKTYVEKVDELKKKYGI
modifications: biotin (site not stated; for the SPR chip)
WST-8 conversion, metabolic activation by the substance (Huh-7 cells; shUNR and shACBP/DBI, increasing concentrations of RecACBP/DBI, 4 h (text: within 4.5 h), n = 8–9): increase in the capacity to reduce | food intake / appetite, effect of recombinant ACBP/DBI (C57BL/6 mice): induced an increase in appetite | WST-8 conversion, metabolic activation by the substance [3]: increase in the capacity to reduce
